Reference: the DeepSol protein solubility set

test: soluble on expression in E. coli; label from the status in PepcDB or PDB records

Q: With “MQMAGFGLIAKLRNKIRVKPNNKIQIGKNTRIRYCDIYVNGNNNQLIIHNGANLKGVSIELNGNNCLLEIGENCVIGENCFLSCRESGTKLVIGKECMFSRNVKLMTSDGHDILRDGKRINPAKSIYIGSHVWLADNVTILKGVDIGSGSIIGINSTVTKSIGQYCIAAGNPARKIKDNISWNTTLSY” as the sequence, how does the “soluble on expression in E. coli” value read?
A: not soluble

Q: Which “soluble on expression in E. coli” value does the source give for “MYYGFDIGGTKIALGVFDSTRRLQWEKRVPTPHTSYSAFLDAVCELVEEADQRFGVKGSVGIGIPGMPETEDGTLYAANVPAASGKPLRADLSARLDRDVRLDNDANCFALSEAWDDEFTQYPLVMGLILGTGVGGGLVLNGKPITGQSYITGEFGHMRLPVDALTLMGFDFPLRRCGCGQMGCIENYLSGRGFAWLYQHYYDQSLQAPEIIALWEQGDEQAHAHVERYLDLLAVCLGNILTIVDPDLLVIGGGLSNFTAITTQLAERLPRHLLPVARAPRIERARHGDAGGMRGAAFLHLTD” here?
A: soluble

Q: For “MGSDKIHHHHHHSEEIFNGQVTDGEHSGAQLNIVPTVSSESTETRAGFDPKTDWAAGDALGLFMYKSSGWGDAYPRYDAQNNKSTRQANGWSQASPVYLLVDKATIWAYYPYNQAVTDGTKIPVPINVGTSVDYMWGKSTNQVSVIETDARIPMKHALSQFVVRLKVSPEYHNDGNLTSAKLKATGAKFATTGTMNLNDGGKITFQPTSTELTWSPNTTVPAQGQQAVDYAAAIYPMTLAAGEVSLEVVIDGATYTYAIPQITWEAGKRYIYSITMRSNDAEIGGENGQSVTIEGWTSTEEDITLVPVK”, which “soluble on expression in E. coli” value is on record?
A: not soluble

Q: Which “soluble on expression in E. coli” value does the source give for “MKTLSKQDNTMEWLVKKSCCNKQDNRHVLMLCDAGGAIKMIAEVKSDFAVKVGDLLSPLQNALYCINREKLHTVKVLSASCYSPDEWERQCKVAGKTQ” here?
A: soluble

Q: For “MGSDKIHHHHHHMKVKAPGRINIIGEHTDYNDGYVLPFAVNRYVFLSIEGSERFIFHSENVNETVEMEKIEKLNKWTDYISGVIASFEKRGYRVSPVKISVSSNLPIGAGLSSSAALEVATAYAISEYFGFNVPKLELVKIAREAEVEFVGVRCGIMDQFTAVFGKKDHAIFLDTMTLEYEYVPLKLEGYEINLVDSNVKHELSSSEYNRRRQECEEVLKTLEKKSFREVTKEDLERLSGTLRKRAQHVLEENERVLKSVQALKEGDFETLGKLLFSSHESLRDLYEVSCEETDFIVDYLRGKEGILGARMVGGGFGGGVIVLSKKGAFGKIKEELVESYRKRFGIDLIFHEIESSDGVQKI”, which “soluble on expression in E. coli” value is on record?
A: not soluble

Q: Which “soluble on expression in E. coli” value does the source give for “MGSDKIHHHHHHMSQVIPASSQEKRRERIVSYVTRHGFARVEALAELFEVSAMTIHRDLEALAADNLVERIRGGARSVSPSMSELAVEQRRHLHRTVKEALCTAAARLIPEGAVVAIDDSTTLESLVEKLPQRSPSALITHSLKTMADHRVRAGMSDIRLIACAGLYFAETDSFLGKATSAQLNELSADISFVSTTAVRATGEVPALFHPDMEAADTKRALIGIGSVRVLVVDSSKFGSAGVFKVASIEEFDHIIIDQQCTREQRDLLRNSRAQIHVIDHNGDEILDTPTEEDF” here?
A: not soluble

Q: For “MSDVAVAADTTETPAAPTKASKATKASKATKASKATKAKTTKVPMVKADAAHPPFINMVTEAISSIKDRKGPSRAAILKYITTKYTLGDQANKINAHLRKALNKGLESNAFVQASGNGANGRFRLAEKTASVAKSPAAAKKDATGEKKATTTVAKKAATGEKKATTTVAKKAATGEKKATTTVAKKAAAGDKAKKTEVKVKKVKSPKKIAKSPVNKVTKSPVKKIAKSSSMKAAPKKAAAKPAKKAPAAAPEA”, which “soluble on expression in E. coli” value is on record?
A: soluble

Q: Which “soluble on expression in E. coli” value does the source give for “MSLGQNRLELLLFRLDGQQLYGINVFKVREVLQCPQLTLMPKSSPVVCGVANIRGATIPILDLAMATGSGALKDKNSPFVIITEYNTKTQGFLVRSVERIVNMNWEEIHPPPKGTGRDHYLTAVTRVDNQLVEIIDVEKVLAEVAPTPEAISVGVVDVETQSKALSLRVLTVDDSSVARKQVTRCLQTVGVEVVALNDGRQALDYLRKLVDEGKKPEEEFLMMISDIEMPEMDGYTLTAEIRSDPRMQKLHIILHTSLSGVFNQAMVKKVGADDFLAKFRPDDLASRVVDRIKAADISEGHHHHHH” here?
A: soluble

Q: With “MVDKIIFTVTPIFSIPPRGAAAVETWMYQVAQRTNFPNRIVCIKNPGYSNYTFVNDNCSIHRVGFSRIYKRLFQKWTRLDPLPYSQRILNIAHDFPITKESVIVVHNSMKLYTQIRKRAPQARVVIHMHNAFEPKLLEQNVKMIVPSLYLKKYYQSYLANADIEIVPNGIDLETYQSNFQPITRSELNISPEEKIIFYAGRIVPDKGILLLMQSFEKLAAAHKNLKLVVIGDYTEMSKSDKGAYQRNVREIAKRLKDRCIMLGSIPPEKMHCYYPLADLVVIPSQFQEPFCMVAIEAMGAGKPVLVSTRGGMTEFVKENTTGFHLKEPMTADSISSDILKTLANPELTAVAKQGQDFVFDHYSWDGVTQRFEEVIHNWFE” as the sequence, how does the “soluble on expression in E. coli” value read?
A: not soluble

Q: With “MEIQIVTGFLGAGKTTFLNRYLPLLSGKTVVIENEFGDIGIDGDRIQEDIPVREIFAGCICCSLAMDFRKGIKEIAENFHPDRILIEPSGVGRLTDIVKACQMAREREKVSLQITKLIAIVDMASFEEYIEGFGAFYQDQIERAGLLLLSHVEAENKAQKEIIIGRLKELNPDAILYDGDWRQLENEELLKLLEEAPDYDEDARRDAAFAALPADKVFSSVSFMDLPQMRIEDLEAIMKALEKEEYGYILRAKGWIETMEKGLVHFDFTPTVSKYREEKNPAGTGGEAVVIGCGLNQAALEMLFRRKNILEHHHHHH” as the sequence, how does the “soluble on expression in E. coli” value read?
A: soluble

Q: For “MSVKEPEKFLASHIYNIDYQEDLNKCFANLCTNKKNTILLESAEIDTKDKLKSILVLNSALRIACIENKVFIKPLSENGKYALKAIQENIKKDVDYKYDNNQLVLTFEFIKDYQLSESQKLKKPSVFDALRIIKDSFEIYNEFSIFLAGLFAYDVVASFENIGKIKRKNKCPDYVFYLADTILVSDHQEQKTFIQVNSFGHQTITDLEDSVAAIKQNINNDIELKVEKFKNIEPKESINDRDFCIVVDKLKSHIIDGDIFQVVPSRSFFLPCQNSLEVYKELKRTNPSPYMFYMQDEDFILFGASPESALKYQKSTNQVEIYPIAGTRRRAKNSDGSINADLDSRIELELRLDAKENAEHMMLVDLARNDVARISKTGTRYVADLLKVDRYSHVMHLVSRVVGQLADDLDALHAYQASMNMGTLTGAPKIKAMQLISEVEKQTRGVYGGAIGYFNGYGDLDSCIVIRSAYVENGVAEIQAGAGVVLDSIPIAEADETRTKAQAVISAIKNVHGV”, which “soluble on expression in E. coli” value is on record?
A: not soluble

Q: With “MGSDKIHHHHHHMPLNMNRDVFITAAVTGSGGTQDKSPHVPRSPKEIAASAIEAARAGAAVVHCHVRDPETGAPSRRLELYRELTDRIRDSEVDVVLNLTAGMGGDIVFGSTEAPLPVNEAATDMIGATERMAHIAECLPEICTLDCGTMNFAEADYVMTNTPGMLRAMGQMMTDLGVKPEIEAFDTGHLWFAKQLVKEGILEPNALVQLCMGVPWGAPNDLNTFMAMVNNVPSDWTWSAFSLGRDQMPFAAASVLAGGNVRVGLEDNLFLDKGVLATNAQLVERAVSVIEGMGAKIVGPDAVREKLGLTKRAPVAA” as the sequence, how does the “soluble on expression in E. coli” value read?
A: not soluble

Q: For “SLSRYLLTDSPAVCVLSGERGVGTTTVLKRILNKTKNAVPIYINCPYDGYAALLPELAQLLGLDAESSEKDILQHLRNSEQCYLIAFDNAQRLVKPKVNGLVELMKLTNLLRRARKSHRVVLSIDKSSWRFIDRARGERLLFDLVTFMP”, which “soluble on expression in E. coli” value is on record?
A: not soluble

Q: Which “soluble on expression in E. coli” value does the source give for “AEVTQLSNGIVVATEHNPSAHTASVGVVFGSGAANENPYNNGVSNLWKNIFLSKENSAVAAKEGLALSSNISRDFQSYIVSSLPGSTDKSLDFLNQSFIQQKANLLSSSNFEATKKSVLKQVQDFEDNDHPNRVLEHLHSTAFQNTPLSLPTRGTLESLENLVVADLESFANNHFLNSNAVVVGTGNIKHEDLVNSIESKNLSLQTGTKPVLKKKAAFLGSEVRLRDDTLPKAWISLAVEGEPVNSPNYFVAKLAAQIFGSYNAFEPASRLQGIKLLDNIQEYQLCDNFNHFSLSYKDSGLWGFSTATRNVTMIDDLIHFTLKQWNRLTISVTDTEVERAKSLLKLQLGQLYESGNPVNDANLLGAEVLIKGSKLSLGEAFKKIDAITVKDVKAWAGKRLWDQDIAIAGTGQIEGLLDYMRIRSDMSMMRW” here?
A: soluble
